From patent US20240132578A1

Legend:
Experiment in all cases: cell-based or functional assay
[1] = biological target: HIV-1 Env of isolate APV-6 (Clade B) (HIV-1)
[2] = biological target: HIV-1 NL43 envelope protein (Env) on pseudotyped virus (HIV-1 strain NL43)
[3] = biological target: HIV-1 Env of isolate MGRM-Chronic-B-023 (subtype B), on pseudovirus (HIV-1)
[4] = biological target: HIV-1 Env of isolate MG RM-D-013 (subtype D) (HIV-1)
[5] = biological target: HIV-1 Env of isolate MGRM-A-013 (pseudovirus) (HIV-1)
[6] = biological target: HIV-1 Env of isolate MGRM-F1-016 (subtype F) (HIV-1)
[7] = biological target: HIV-1 Env of isolate MGRM-C-026 (clade C pseudovirus) (HIV-1)
[8] = biological target: HIV-1 Env of isolate MGRM-A-014 (pseudovirus) (HIV-1)
[9] = biological target: HIV-1 Env of isolate MGRM-Chronic-B-018 (subtype B), on pseudovirus (HIV-1)
[10] = biological target: HIV-1 JR-CSF envelope protein (Env) on pseudotyped virus (HIV-1 isolate JR-CSF) (UniProt P20871)
[11] = biological target: HIV-1 Env of isolate CAAN.A2 (subtype B), on pseudovirus (HIV-1)
[12] = biological target: HIV-1 Env of isolate 92UG114 (subtype D) (HIV-1)
[13] = biological target: HIV-1 Env of isolate MGRM-A-011 (pseudovirus) (HIV-1)
[14] = biological target: HIV-1 Env of isolate MG RM-D-008 (subtype D) (HIV-1)
[15] = biological target: HIV-1 envelope glycoprotein (Env) of isolate 94UG103 (HIV-1)
[16] = biological target: HIV-1 93IN905 envelope protein (Env) on pseudotyped virus (HIV-1 strain 93IN905)
[17] = biological target: HIV-1 Env of isolate IAVI-C18 (Clade C) (HIV-1)
[18] = biological target: HIV-1 Env of isolate APV_17 (subtype B), on pseudovirus (HIV-1)
[19] = biological target: HIV-1 Env of pseudovirus MGRM-F1-013 (clade F) (HIV-1)
[20] = biological target: HIV-1 envelope glycoprotein (Env) of isolate 92WR021 (HIV-1)
[21] = biological target: HIV-1 Env of isolate MGRM-C-027 (clade C pseudovirus) (HIV-1)

Row | Substance | IC50, single-round pseudovirus neutralization [3] | IC50 (µg/mL), pseudovirus neutralization [4] | IC50 (µg/mL), pseudovirus neutralization [5] | IC50 (µg/mL), pseudovirus neutralization [6] | IC50 (µg/mL), single-round pseudovirus neutralization [7] | IC50 (µg/mL), pseudovirus neutralization [8] | IC50, single-round pseudovirus neutralization [9] | IC50, single-round pseudovirus neutralization [11] | IC50 (µg/mL), pseudovirus neutralization [12] | IC50 (µg/mL), pseudovirus neutralization [13] | IC50 (µg/mL), pseudovirus neutralization [14] | IC50 [15] | IC50, single-round pseudovirus neutralization [18] | IC50 [20] | IC50 (µg/mL), single-round pseudovirus neutralization [21] | other results
1 | 1496_C09 (PG9) (TCN-109) (antibody) | 0.027 µg/mL | 0.021 µg/mL | 0.122 µg/mL | 0.518 µg/mL | 0.06 µg/mL | 1.25 µg/mL | 0.216 µg/mL | 19.3 µg/mL | 40.6 µg/mL | 0.033 µg/mL | 11.5 µg/mL | 0.34 µg/mL | 34.8 µg/mL | 0.027 µg/mL | 5.36 µg/mL | IC90 (neutralization of pseudovirus) [1]: 1.96 µg/mL; IC50, Neutralizing Antibody Assay, Virus/Ab Incubation 1 hour [2]: 0.294 µg/mL; IC50, Neutralizing Antibody Assay, Virus/Ab Incubation 18 hour [2]: 38 µg/mL; IC50, Neutralizing Antibody Assay, Virus/Ab Incubation 1 hour [10]: < 2.5 ng/mL; IC50, Neutralizing Antibody Assay, Virus/Ab Incubation 18 hour [10]: < 2.5 ng/mL; IC50, Neutralizing Antibody Assay, Virus/Ab Incubation 1 hour [16]: 0.144 µg/mL; IC50, Neutralizing Antibody Assay, Virus/Ab Incubation 18 hour [16]: 0.0619 µg/mL; IC90 (neutralization of pseudovirus) [17]: 0.866 µg/mL; IC50 [19]: 0.56 µg/mL
2 | PGV04 (antibody) | 0.139 µg/mL | 0.088 µg/mL | 0.086 µg/mL | 0.268 µg/mL | 0.303 µg/mL | 0.172 µg/mL | 0.164 µg/mL | 2.26 µg/mL | 0.461 µg/mL | 0.09 µg/mL | 3.56 µg/mL | 0.202 µg/mL | 0.309 µg/mL | 0.038 µg/mL | 2.76 µg/mL | –
